Assay results from the supplement of paper PMC10567573.

B1: SEC22B (parent)
chain: FPKKLAFAYLEDLHSEFDEQHGKK
B2: SOAT1 (parent)
chain: KSAAMLAVFAVSAVVHEYALAVCL

Variants of: B1
Assay: protein stability index of a GFP-peptide fusion (GPS, HEK-293T) (PSI 1-6); higher = more stable
Conditions: c terminus: a fixed tail appended
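Also: lentivirally expressed fusions sorted by FACS into six bins by GFP to DsRed ratio, PSI derived from sequencing read proportions per bin multiplied by bin number.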

Variant	protein stability index
IPKKLAFAYLEDLHSEFDEQHGKK	3.56
QPKKLAFAYLEDLHSEFDEQHGKK	4.51
CPKKLAFAYLEDLHSEFDEQHGKK	4.01
YPKKLAFAYLEDLHSEFDEQHGKK	2.53
VPKKLAFAYLEDLHSEFDEQHGKK	4.13
SPKKLAFAYLEDLHSEFDEQHGKK	4.52
RPKKLAFAYLEDLHSEFDEQHGKK	3.98
PPKKLAFAYLEDLHSEFDEQHGKK	4.6
GPKKLAFAYLEDLHSEFDEQHGKK	4.02
HPKKLAFAYLEDLHSEFDEQHGKK	3.84
WPKKLAFAYLEDLHSEFDEQHGKK	3.51
LPKKLAFAYLEDLHSEFDEQHGKK	3.79
KPKKLAFAYLEDLHSEFDEQHGKK	4.8
MPKKLAFAYLEDLHSEFDEQHGKK	3.97
APKKLAFAYLEDLHSEFDEQHGKK	4.36
TPKKLAFAYLEDLHSEFDEQHGKK	4.37
EPKKLAFAYLEDLHSEFDEQHGKK	5.41
NPKKLAFAYLEDLHSEFDEQHGKK	4.88
DPKKLAFAYLEDLHSEFDEQHGKK	4.93
FAKKLAFAYLEDLHSEFDEQHGKK	1.84
FEKKLAFAYLEDLHSEFDEQHGKK	4.11
FCKKLAFAYLEDLHSEFDEQHGKK	1.87
FFKKLAFAYLEDLHSEFDEQHGKK	2.62
FDKKLAFAYLEDLHSEFDEQHGKK	4.59

Variants of: B2
Assay: as above
Conditions: c terminus: a fixed tail appended

Variant	protein stability index
KSAAMLAVFAVIAVVHEYALAVCL	3.04
KSAAMLAVFAVNAVVHEYALAVCL	4.18
KSAAMLAVFAVWAVVHEYALAVCL	2.99
KSAAMLAVFAVRAVVHEYALAVCL	2.11
KSAAMLAVFAVQAVVHEYALAVCL	3.61
KSAAMLAVFAVTAVVHEYALAVCL	2.46
KSAAMLAVFAVAAVVHEYALAVCL	1.63
KSAAMLAVFAVPAVVHEYALAVCL	2.41
KSAAMLAVFAVSAVVHEQALAVCL	2.56
KSAAMLAVFAVSAVVHEPALAVCL	2.23
KSAAMLAVFAVSAVVHEMALAVCL	1.85
KSAAMLAVFAVSAVVHEFALAVCL	4.1
KSAAMLAVFAVSAVVHEDALAVCL	2.21
KSAAMLAVFAVSAVVHEWALAVCL	3.5
KSAAMLAVFAFSAVVHEYALAVCL	2.89
KSAAMLAVFADSAVVHEYALAVCL	3.09
KSAAMLAVFANSAVVHEYALAVCL	3.47
KSAAMLAVFARSAVVHEYALAVCL	2.94
KSAAMLAVFAASAVVHEYALAVCL	2.8
KSAAMLAVFAHSAVVHEYALAVCL	1.4
KSAAMLAVFACSAVVHEYALAVCL	2.8
KSAAMLAVFAQSAVVHEYALAVCL	3.03
KSAAMLAVFAPSAVVHEYALAVCL	4.61
KSAAMLAVFAVSAVVHQYALAVCL	3.61

Variant	protein stability index
KSAAMLAVFAVSAVVHGYALAVCL	1.39
KSAAMLAVFAVSAVVHNYALAVCL	2.23
KSAAMLAVFAVSAVVHCYALAVCL	2.5
KSAAMLAVFAVSAVVHFYALAVCL	2.73
KSAAMLAVFAVSAVVHTYALAVCL	3.21
KSAAMHAVFAVSAVVHEYALAVCL	2.73
KSAAMNAVFAVSAVVHEYALAVCL	3.55
KSAAMPAVFAVSAVVHEYALAVCL	3.78
KSAAMEAVFAVSAVVHEYALAVCL	2.25
KSAAMGAVFAVSAVVHEYALAVCL	2.94
KSAAMIAVFAVSAVVHEYALAVCL	3.09
KSAAMRAVFAVSAVVHEYALAVCL	2.02
KSAAMMAVFAVSAVVHEYALAVCL	4.28
KSAAMKAVFAVSAVVHEYALAVCL	2.46
KSAAMQAVFAVSAVVHEYALAVCL	2.68
KSAAMDAVFAVSAVVHEYALAVCL	2.74
KSAAMFAVFAVSAVVHEYALAVCL	2.21
KSAAMCAVFAVSAVVHEYALAVCL	3.42
KSAAMLAVFAVSAVVHEYALAVCN	2.87
KSAAMLAVFAVSAVVHEYALAVCT	5.26
KSAAMLAVFAVSAVVHEYALAVCD	3.9
KSAAMLAVFAVSAVVHEYALAVCY	1.98
KSAAMLAVFAVSAVVHEYALAVCA	3.7
KSAAMLAVFAVSAVVHEYALAVCK	4.06

Variant	protein stability index
KSAAMLAVFAVSAVVHEYALAVCP	2.62
KSAAMLAVFAVSAVVHEYALAVCF	2.33
KSAAMLAVFAVSAVVHEYALAVCI	2.33
KSAAMLAVFAVSAVVHEYAIAVCL	1.49
KSAAMLAVFAVSAVVHEYAKAVCL	2.58
KSAAMLAVFAVSAVVHEYACAVCL	2.93
KSAAMLAVFAVSAVVHEYAWAVCL	3.92
KSAAMLAVFAVSAVVHEYANAVCL	4.2
KSAAMLAVFAVSAVVHEYAQAVCL	4.49
KSAAMLAVFAVSAVVHEYAEAVCL	3.95
KSAAMLAVFAVSAVVHEYASAVCL	2.62
KSAAMLAVFAVSAVVHEYATAVCL	2.31
KSAAMLAVFAVSLVVHEYALAVCL	2.81
KSAAMLAVFAVSIVVHEYALAVCL	3.04
KSAAMLAVFAVSNVVHEYALAVCL	2.97
KSAAMLAVFAVSQVVHEYALAVCL	5.23
KSAAMLAVFAVSKVVHEYALAVCL	1.37
KSAAMLAVFAVSTVVHEYALAVCL	4.82
KSAAMLAVFAVSFVVHEYALAVCL	2.17
KSAAMLAVFAVSWVVHEYALAVCL	3.01
KSAAMLAVFAVSAVVKEYALAVCL	2.88
KSAAMLAVFAVSAVVTEYALAVCL	2.1
